Test results reported in US6617117.

Legend:
[1] = system: T1, human GST-SAPK4
T1 sequence: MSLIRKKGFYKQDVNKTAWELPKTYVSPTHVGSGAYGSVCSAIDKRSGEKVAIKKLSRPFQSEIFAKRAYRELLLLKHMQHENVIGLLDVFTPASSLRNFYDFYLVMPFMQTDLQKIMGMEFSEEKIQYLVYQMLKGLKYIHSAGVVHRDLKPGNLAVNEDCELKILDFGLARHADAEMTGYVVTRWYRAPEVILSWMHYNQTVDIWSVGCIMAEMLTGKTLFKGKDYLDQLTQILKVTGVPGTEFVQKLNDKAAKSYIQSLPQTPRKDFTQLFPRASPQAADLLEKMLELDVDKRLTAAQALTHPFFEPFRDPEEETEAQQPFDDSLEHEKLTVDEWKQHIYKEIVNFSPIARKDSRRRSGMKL

[2] = biological target: c-myc epitope-tagged SAPK4 (human) (UniProt O15264); experiment: cell-based or functional assay
[3] = biological target: SAPK3 (untagged, transfected) (rat) (UniProt Q63538); experiment: cell-based or functional assay
Sequence of SAPK3 (untagged, transfected) (rat) (Q63538 whole entry): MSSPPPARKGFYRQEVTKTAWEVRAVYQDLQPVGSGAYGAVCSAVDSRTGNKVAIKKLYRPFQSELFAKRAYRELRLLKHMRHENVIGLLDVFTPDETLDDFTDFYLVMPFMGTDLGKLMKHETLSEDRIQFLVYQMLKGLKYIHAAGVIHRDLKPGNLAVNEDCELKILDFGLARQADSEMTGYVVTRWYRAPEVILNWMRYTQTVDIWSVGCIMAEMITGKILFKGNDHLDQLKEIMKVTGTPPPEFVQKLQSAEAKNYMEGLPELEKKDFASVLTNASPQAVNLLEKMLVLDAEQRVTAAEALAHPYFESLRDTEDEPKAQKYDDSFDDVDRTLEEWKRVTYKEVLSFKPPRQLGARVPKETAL

Row | SAPK4 activity (MBP phosphorylation) after co-transfection into COS cells [2] | SAPK3 activity (MBP phosphorylation) after cotransfection into COS cells [3] | activation of transfected SAPK3 by osmotic shock in cells cotransfected with SKK3 [3] | Substance | phosphorylation and activation of SAPK4 in vitro [1]
1 |  |  |  | SKK1 (MKK4) | SAPK4 is phosphorylated and activated by SKK1 in vitro, but at a much slower rate than SAPK2a under identical conditions
2 | 12.5 fold | 10 fold | 30 fold | human SKK3 (transfected, pcDNA3.1) (from UniProt P52564 1-334) (enzyme) | 
